Drawing on paper PMC9889962 (Antibody Therapeutics, 2023), this text covers Kd for one molecule.

In this assay the target is T1, FcRn receptor (UniProt P55899 24-365).
T1 construct: also called purified FcRn
Nature of the assay: SPR. Particulars: both partners purified.

B1: LiVE-Longer YTE chimera (ACE-2 LVE/STR-YTE fusion protein) (Fc fusion)
chain: QSTIEEQAKLFLDKFNVEAEDLFYQSSLASWNYNTNITEENVQNMNNAGDKWSAFLKEQSTLAQMYPLQEIQELTVKLQLQALQQNGSSVLSEDKSKRLNTILNTMSTIYSTGKVCNPDNPQECLLLEPGLNEIMANSLDYNERLWAWESWRSEVGKQLRPLYEEYVVLKNEMARANHYEDYGDYWRGDYEVNGVDGYDYSRGQLIEDVEHTFEEIKPLYEHLHAYVRAKLMNAYPSYISPIGCLPAHLLGDMWGRFWTNLYSLTVPFGQKPNIDVTDAMVDQAWDAQRIFKEAEKFFVSVGLPNMTQGFWENSMLTDPGNVQKAVCHPTAWDLGKGDFRILMCTKVTMDDFLTAHHEMGHIQYDMAYAAQPFLLRNGANEGFHEAVGEIMSLSAATPKHLKSIGLLSPDFQEDNETEINFLLKQALTIVGTLPFTYMLEKWRWMVFKGEIPKDQWMKKWWEMKREIVGVVEPVPHDETYCDPASLFHVSNDYSFIRYYTRTLYQFQFQEALCQAAKHEGPLHKCDISNSTEAGQKLFNMLRLGKSEPWTLALENVVGAKNMNVRPLLNYFEPLFTWLKDQNKNSFVGWSTDWSPYADQSIKVRISLKSALGDKAYEWNDNEMYLFRSSVAYAMRQYFLKVKNQMILFGEEDVRVANLKPRISFNFFVTAPKNVSDIIPRTEVEKAIRMSRSRINDAFRLNDNSLEFLGIQPTLGPPNQPPVS
Usually Kd stands for a measure of binding affinity in units of concentration. On to B1, for which binding was put at a Kd of 27 nM.
